Two molecules from publication PMC9242856, “Structural basis of sodium-dependent bile salt uptake into the liver” (Nature, 2022) can be followed below.

In test [1] the target is NTCPEM expressed on HEK 293F cells (human) (UniProt Q14973).
The target in test [2] is T1, wild-type human Na+-taurocholate co-transporting polypeptide (NTCP) expressed on HEK 293F cells (human, UniProt Q14973).
T1 construct: Na+-taurocholate co-transporting polypeptide (NTCP, SLC10A1), human, wild type; also called wild-type NTCP; SLC10A1; source: HEK 293F, transient transfection, on cells
T1 sequence (Q14973 whole entry): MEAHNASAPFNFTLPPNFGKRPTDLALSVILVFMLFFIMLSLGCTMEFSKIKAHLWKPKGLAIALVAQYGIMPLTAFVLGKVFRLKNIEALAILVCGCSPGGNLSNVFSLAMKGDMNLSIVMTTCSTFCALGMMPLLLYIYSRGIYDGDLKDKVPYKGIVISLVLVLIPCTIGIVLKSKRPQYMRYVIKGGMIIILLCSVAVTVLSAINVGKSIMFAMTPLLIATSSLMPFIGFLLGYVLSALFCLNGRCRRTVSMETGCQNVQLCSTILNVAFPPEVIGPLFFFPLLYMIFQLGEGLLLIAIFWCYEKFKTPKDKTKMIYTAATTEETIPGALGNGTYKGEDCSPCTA
Nature of the test: fluorescent ligand labelling of cells (plate reader); HEK 293F cells expressing NTCP constructs in PBS; labelled with 10 nM (wild-type NTCP) or 50 nM (NTCPEM) purified myr-preS1_48-GFP for 30 min; where tested, pre-incubation with 10 uM nanobody for 1.5 h; GFP fluorescence, excitation 470 nm, emission 508 nm. The note with it: one partner purified.

Sequence of NTCPEM expressed on HEK 293F cells (human) (Q14973 other isoform, or with tags, fused parts or gaps, change not shown): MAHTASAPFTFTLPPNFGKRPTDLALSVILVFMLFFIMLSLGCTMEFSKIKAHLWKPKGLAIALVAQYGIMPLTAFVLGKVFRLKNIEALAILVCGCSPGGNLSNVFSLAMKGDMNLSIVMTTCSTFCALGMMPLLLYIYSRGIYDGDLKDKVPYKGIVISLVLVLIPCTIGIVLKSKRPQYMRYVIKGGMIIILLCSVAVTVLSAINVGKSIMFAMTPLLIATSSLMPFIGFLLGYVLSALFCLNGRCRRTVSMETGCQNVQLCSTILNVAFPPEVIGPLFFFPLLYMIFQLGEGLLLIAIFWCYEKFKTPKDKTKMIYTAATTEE

B1: Nanobody 91 (VHH)
VHH: QVQLVESGGGLVEAGGSLRLSCAASTNLRSYAMAWFRQAPGKEREFVSFINWNYGNTRYADSVKGRFTISRDNAKITVYLQMNSLKPEDTAVYYCAAATIGRLAGIDSTTLYDYWGQGTQVTVSS
Take B1: the IC50 of inhibition of Na+-induced uptake of the fluorescent substrate tauro-nor-THCA-24-DBD by cells expressing NTCPEM in test [1] stood at 34 nM.

B2: Nanobody 87 (VHH)
VHH: QVQLVESGGGLVQAGGSLRLSCAVSGRTTANYNMGWFRQAPGKEREFVAGIKWSSGSTYVADSAKGRFTISRDNAKNSVYLQMDSLKPEDTALYYCAANYYGVSWFLISPSSYDYWGQGTQVTVSS
notes: llama (Lama glama) nanobody raised against NTCPCO; the nanobody chain of PDB 7PQG; Tags are those of the phage display vector pMESy4 as told for the library; also called Nb87; source: E. coli periplasm, purified (Ni-NTA, SEC)
As for B2, in test [1], the IC50 of inhibition of Na+-induced uptake of the fluorescent substrate tauro-nor-THCA-24-DBD by cells expressing NTCPEM worked out at 180 nM. Also, the binding result in test [2] is recorded as “binds”.
